Test system: MSCs
Test: Gene expression in cytokine-treated MSCs (quantitative RT-PCR, Western Blot)
Assay type: cell-based, mouse
Experimental: FIG. 6. IL-17A greatly enhances inflammatory cytokine-induced iNOS expression in mouse BM-MSCs at both mRNA and protein levels. BM-MSCs were treated with the indicated cytokines. The iNOS gene expression was measured by real-time PCR.
FIGS. 10A, 10B, 10C, 10D and 10E. (FIGS. 10A and 10C). MSCs were cultured with different combinations of inflammatory cytokines IFNγ, TNFα, IL-17A (10 ng/ml) for 12 hr, and then cells were harvested for RNA extraction. The mRNA expression levels of inflammatory molecules iNOS, IL-6, CXCL1 (FIG. 10A) and chemokines CCL2, CCL5, CXCL9, CXCL10 (FIG. 10C) were detected by quantitative RT-PCR. (FIG. 10B). MSCs were cultured with different combinations of inflammatory cytokines IFNγ, TNFα, IL-17A (10 ng/ml) for 24 hr, and the protein level of iNOS was detected by Western Blot. (FIG. 10D). MSCs were supplemented with Sup-CD3 or Sup-CD3 pretreated with antibodies against IL-17A, and cells were collected for RNA extraction after 12 hr. The expression of iNOS, IL-6, CXCL1, CCL2, CCL5, CXCL9 and CXCL10 were measured by quantitative RT-PCR. Sup-CD3: supernatant from splenocytes activated by anti-CD3 and anti-CD28. (FIG. 10E). MSCs were treated with Sup-CD3 or Sup-CD3 pretreated with antibodies against IL-17A, and the protein level of iNOS was assessed by Western Blot after 24 hr. mRNA expression values are means±SEM of three wells from a representative of three independent experiments. Western Blot data is from a representative of three independent experiments.
FIGS. 11A, 11B, 11C and 11D. (FIG. 11A) MSCs with Act1 knockdown or control were treated with IL-17A for different time and the phosphorylation levels of IκBα, ERK, p65, JNK were assessed by Western Blot. (FIG. 11B) MSCs with Act1 knockdown or control were treated with IFNγ and TNFα with or without IL-17A (all cytokines supplemented at 5 ng/ml) the protein levels of iNOS and Act1 were assessed by Western Blot. (FIG. 11C) MSCs (Act1 knockdown or control) were treated with different cytokines 12 hr, and iNOS expression was measured by quantitative RT-PCR. mRNA expression values are means±SEM. (FIG. 11D) MSCs (Act1 knockdown or control) were first treated with IFNγ and TNFα with or without IL-17A (all cytokines supplemented at 5 ng/ml) for 12 hr, and then cocultured with T cell hybridoma A1.1 cells at a ratio of 1:10 for 12 hr. T cell proliferation was measured by 3H-Tdr incorporation, taking the proliferation level of A1.1 alone as 100%.
FIGS. 12A and 12B. (FIG. 12A). WT MSCs or auf1^−/− MSCs were treated with IFNγ and TNFα, or together with IL-17A (all cytokines supplemented at 10 ng/ml) for 12 hr, and iNOS, IL-6 and CXCL1 expression was measured by quantitative RT-PCR. mRNA expression values are means±SEM of three wells from a representative of three independent experiments. (FIG. 12B). WT MSCs were treated with IFNγ and TNFα (10 ng/ml), or together with different concentrations of IL-17A; auf1^−/−-MSCs were treated with IFNγ and TNFα (10 ng/ml), or together with 10 ng/ml of IL-17A. After 24 hr, cells were harvested for detection of iNOS by Western Blot. Western blot is a representative of three independent experiments.
RNA isolation and gene expression assay-Total RNA was isolated with the RNAprep Pure Cell/Bacteria Kit. First-strand cDNA synthesis was performed with a cDNA synthesis kit. The levels of mRNAs were measured by quantitative RT-PCR (7900 HT; Applied Biosystems, Foster City, CA) with SYBR Green Master Mix and normalized to the level of β-actin mRNA. Sequences of forward and reverse primer pairs are as follows:
Western blotting analysis-Cells were washed twice with ice-cold PBS, harvested and lysed in the RIPA buffer (Millipore, Temecular, CA) containing a cocktail of protease inhibitors (Roche, Natley, NJ) and PMSF (Sigma) for 30 min on ice. Lysates were clarified by centrifugation at 16,000 g for 15 minutes. Protein concentration of the supernatant was determined by the Bradford assay (Bio-Rad, Hercules, CA). […]

[1] = together with IFNγ and TNFα, 10 ng/ml, 12 hr

B1: IL-17A: recombinant mouse interleukin 17A (protein)
chain: AAIIPQSSACPNTEAKDFLQNVKVNLKVFNSLGAKVSSRRPSDYLNRSTSPWTLHRNEDPDRYPSVIWEAQCRHQRCVNAEGKLDHHMNSVLIQQEILVLKREPESCPFTFRVEKMLVGVGCTCVASIVRQAA
5 ng/ml
  IFNγ+TNFα induced iNOS expression in Act1 knockdown MSCs: could not upregulate
Addition to IFNγ and TNFα, 10 ng/ml, 12 hr
  expression of CCL5, CCL2, CXCL9, CXCL10: unaffected
In the presence of IFNγ and TNFα
  expression of iNOS at mRNA and protein levels in BM-MSCs: greatly enhanced
[1]
  iNOS, IL-6, and CXCL1 mRNAs in wild-type MSCs: significant increases
  increase of iNOS, IL-6, and CXCL1 mRNA abundance in auf1−/− MSCs: less than twofold
With IFNγ+TNFα
  IL-17A induction of iNOS expression in MSCs with AUF1 knocked down with siRNA: largely abrogated
  iNOS expression in wild type MSCs: strikingly induced

Source: US12156889B2, “Methods of administering mesenchymal stem cells activated by cytokines for enhancing immunosuppression” (Rutgers, The State University of New Jersey, priority 2012, dated 2024)
